# Test results from the nanobody polyreactivity screen of Harvey et al. (2022).
# Test: yeast display, Sf9 membrane polyspecificity reagent, FACS + sequencing; frameworks hold sequencing errors
# Procedure, shortened: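 Synthetic nanobody libraries on Saccharomyces cerevisiae BJ5465 were galactose-induced for 36–48 hours, stained 1 hour at 4 °C with 10% biotinylated, detergent-solubilized Sf9 membrane reagent and enriched on streptavidin microbeads. FACS then separated cells into low and high (top ~1%) gates by anti-HA (expression) and streptavidin (reagent binding) fluorescence. Genes were colony-PCR amplified, MiSeq 2 × 250 sequenced and CDR-length filtered. A clone's polyreactivity label is that of its gate of origin.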
row,Sequence,polyreactivity (PSR sort gate)
1,QVQLVESGGGLVQAGGSLRLSCAASGRTFVYYAMGWYRQAPGKERELVAAITSGGSTYYADSVKGRFTISRDNAKNTVYLQMNSLKPEDTAVYYCNKARVRGARFDYWGQGTQVTVSS,high polyreactivity
2,QVQLVESGGGLVQAGGSLRLSCAASGRTFVYYAMGWYRQAPGKERELVATISRRGGGTYYADSVKGRFTISRDNEKNTVYLQMNSLKPEDTAVYYCAAAFSYYPRYDYWGQGTQVTVSS,high polyreactivity
3,QVQLVESGGGLVQAGGSLRLSCAASGRTFWANTMGWYRQAPGKERELVAAISKRGGSTYYADSVKGRFTISRDNAKNTVYLQMISLKPEDTAVFYCNADKSGWYDYWGQGTQVTVSS,high polyreactivity
4,QVQLVESGGGLVQAGGSLRLSCAASGRTFWDYGMGWYRQAPGKDRELDATISGNGGDTYYADSVKGRFTISRDTAKNTVYLQMNSLKPEDTAVYYCAADYRFYRTDRHYDYWGQGTQVTVSS,low polyreactivity
5,QVQLVESGGGLVQAGGSLRLSCAASGRTFWFNDMGWYRQAPGKERELVAAISDTDGSTYYADSVKGLFTISRDNAKNTVYLQMNSLKPEDTAVYYCAAEAYYGYLYAYDYWGQGTQVTVSS,low polyreactivity
6,QVQLVESGGGLVQAGGSLRLSCAASGRTFWFYDMGWYRQAPGKEREFVASITSSGGSTYYADSVKGRFTISRDIAKNTVYLQMNSLNPEDTAVYYCAASFYWTTRYSREYDYWGQGTQVTVSS,high polyreactivity
7,QVQLVESGGGLVQAGGSLRLSCAASGRTFWFYTMGWYRKAPGKEREFVAAISSGGSTNYADSVKGRFTISRDNAKYSVYLQMNSLKPEDTALYYCNARFQVGQSEYAVWYYPKYDYWGQGTQVTVSS,low polyreactivity
8,QVQLVESGGGLVQAGGSLRLSCAASGRTFWGYAMGWYRQAPGKERELVAAISSGGDTTYADSVKGRFTISRDNAKNTVYLQMNSLKPEDTAVYYCAADRWIPVYILGADGYDYWGQGTQVTVSS,low polyreactivity
9,QVQLVESGGGLVQAGGSLRLSCAASGRTFWHNAMGWYRQEPGKERELVAAITIRGGRTYYADSVKGRFTISRDNAKNTVYLQMNSLKPEDTAVYYCAAPPFVKMDYWGQGTQVTVSS,high polyreactivity
10,QVQLVESGGGLVQAGGSLRLSCAASGRTFWIYAMGWYRQAPGKERELVAAISRGGSTYADSVKGRFTISRDNAKNTVYLQMNSLKPEDTAVYYCAASTPQYQYYYWGQGTQVTVSS,high polyreactivity
11,QVQLVESGGGLVQAGGSLRLSCAASGRTFWIYTMGWYRQAPGKEREFVAAISIRGGSTYYADSVKGRFTISRDNAKNTVYLQMNSLKPEDTAVYYCAADGGYSLWADDDYWGQGTQVTVSS,low polyreactivity
12,QVQLVESGGGLVQAGGSLRLSCAASGRTFWNYAMGWYRQAPGKERELVAVIRFSDGSTYYADSVKGRFTISRDNAKNTVYLQMNSLKPEDTAVYYCAADDLLDYDYWGQGTQVTVSS,low polyreactivity
13,QVQLVESGGGLVQAGGSLRLSCAASGRTFWNYAMGWYRQATGKERELVAVIRFSDGSTYYADSVKGRFTISRDNAKNTVYLQMNSLKPEDTAVYYCAAKGPRRWGSGFDYWGQGTQVTVSS,low polyreactivity
14,QVQLVESGGGLVQAGGSLRLSCAASGRTFWPNAMGWYRQAPGKERELVAGIDWSGGSTYYADSVKGRFTISRDNAKNTVYLQMNSLKPEDTAVYYCNKVYYSYIPSTYGYWGQGTQVTVSS,high polyreactivity
15,QVQLVESGGGLVQAGGSLRLSCAASGRTFWRNAMGWYRQAPGKERELVADITTSGARTYYADSVKGRFTISRDNAKNTVYLQMNSLKPEDTAVYYCAKGPYTPWPKITGYNYWGQGTQVTVSS,high polyreactivity
16,QVQLVESGGGLVQAGGSLRLSCAASGRTFWRYTMGWYRQAPGKERELVAAISTNAGTTYYADSVKGRFTISRDNAKNTVYLQMNSLKPEDTAVYYCAARHPGNGYADPTNYYWGQGTQVTVSS,high polyreactivity
17,QVQLVESGGGLVQAGGSLRLSCAASGRTFWSYAMGWYRQAPGKEREFVAAISRRGGITYYADSVKGRFTISRDNAKNTVYLQMNSLKPEDTAVYYCAALPASVRRPGWHDYWGQGTQVTVSS,high polyreactivity
18,QVQLVESGGGLVQAGGSLRLSCAASGRTFWTNTMGWYRQAPGNEREFVAAITFGDGSTSYADSVKGRFTISRDNAKNTVYLQMNCLIAEVTAVYYCAKRWRRRFVDVWSLYDYWGQGTQVTVSS,low polyreactivity
19,QVQLVESGGGLVQAGGSLRLSCAASGRTFWWNAMGWYRQAPGKERELVAVISYSGGSTYYADSVKGRFTISRDNAKNTVYLQMNSLKPEDTAVYYCAAEAYTYWDTIYDYLGQGTQVTVSS,high polyreactivity
20,QVQLVESGGGLVQAGGSLRLSCAASGRTFWYYAMGWYRQAPGKEREFVAAISWSGGSTYYADSVKGRFTISRDNAKNTVYLQMNSLKPEDTAVYYCAADRYDSSQFYYWGQGTQVTVSS,low polyreactivity
21,QVQLVESGGGLVQAGGSLRLSCAASGRTFWYYAMGWYRQAPGKERELVAAITSGGSTNYADSVKGRFTISRDNAKNTVYLQMNSLKPEDTAVYYCAVDGLGGREGYWGQGTQVTVSS,high polyreactivity

row,Sequence,polyreactivity (PSR sort gate)
1,QVQLVESGGGLVQAGGSLRLSCAASGRTFWYYAMGWYRQSPGKERELVAVITSGSSTYYADSVKGRFTISRDNAKNTVYLQMNSLKPEDTAVYYCAVGRTYRRYSAASYNYWGQGTQVTVSS,high polyreactivity
2,QVQLVESGGGLVQAGGSLRLSCAASGRTFWYYARGWYRQAPGKERELVAYADSVKGRFTISRDNAKNTVYLQMNSLKQEDTAVYYCAVGPVVWFSSSLYYTDYYYWGQGTQVTVSS,low polyreactivity
3,QVQLVESGGGLVQAGGSLRLSCAASGRTFWYYGMGWYRQAPGKERELVAAIRGSGGSTYYADSVKGRFTISRDNAKNTVYLQMNSLKPEDTAVYYCAKRSYIRPKYTYEYWGQGTQVTVSS,high polyreactivity
4,QVQLVESGGGLVQAGGSLRLSCAASGRTFWYYGMGWYRQAPGKERELVAAISRSGGRTSYADSVKGRFTISRDNAKNTVYLQMNSLKPEDTAVYYCATDGYYRYGYWGQGTQVTVAS,high polyreactivity
5,QVQLVESGGGLVQAGGSLRLSCAASGRTFWYYTMGWYRQAPGKEREFVAAISYSAGNTYYADSVKGRFTISRDNAKNTVYLQMNSLKPEDTAVYYCAVQRGYRSNAYDYWGQGTQVTVSS,high polyreactivity
6,QVQLVESGGGLVQAGGSLRLSCAASGRTFWYYTMGWYRQAPGKERELVASITSGSGTTYYADSVKGRFTISRDNAKNTVYLQMNSLKPEDTAVSSCAAKNTPSFFYYDRYDYWGQGTQVTVSS,low polyreactivity
7,QVQLVESGGGLVQAGGSLRLSCAASGRTFYANAMGWYRQAPGKERELVATISSGGRTNYADSVKGRFTISRDNAKNTVYFQMNSLKPEDTAVYYCAKRGPYNRWYGRYDYWGQGTQVTVSS,low polyreactivity
8,QVQLVESGGGLVQAGGSLRLSCAASGRTFYANAMGWYRQAPGKERELVATITRGGSTNYADSVKGRFTISRDNAKNTVYLQMNSLKPEDTAVYYCAARSYTSSHRHYYWGQGTQVTVSS,low polyreactivity
9,QVQLVESGGGLVQAGGSLRLSCAASGRTFYANLMGWYRQAPGKERELVAAITYSGGSTYYADSVKGRFTISRDNATITVYLPMSSLKPEDTAVYYCAADNVSTFYYWGQGTQVTVSS,low polyreactivity
10,QVQLVESGGGLVQAGGSLRLSCAASGRTFYANTMGRYRQAPGTERELVAGITSGGSTSYADSVKGRFTISRDNAKNTVYLQMNSLKPEDTAVYYCAAQFYRYTATGYYADGYWGQGTQVTVSS,low polyreactivity
11,QVQLVESGGGLVQAGGSLRLSCAASGRTFYAYAMGWYRQAPGKDRELVAAITLSTGTTYYADSVKGRFTISRDNAKNTVYLQMNSLKPADTAVYYCAVEGYWYAGWYAMDYWGQGTQVTVSS,low polyreactivity
12,QVQLVESGGGLVQAGGSLRLSCAASGRTFYAYAMGWYRQAPGKERELVAAITKRDGITFYADSVKGRFTISRDNAKNTVYLQMNSLKPEDTAVYYCAATGYVGGIYGHYPRGYWGQGTQVTVSS,high polyreactivity
13,QVQLVESGGGLVQAGGSLRLSCAASGRTFYDNTMGWYRQAPGKERELVAAISRGGSTYADSVKGRFTISRDNAKNTVYLELNSLKPEDTAVYYSNKRSITTEYGYWGQGTQVTVSS,low polyreactivity
14,QVQLVESGGGLVQAGGSLRLSCAASGRTFYFNTMGWDRPAPGKERELVAAIDERGDSTYYADSVKGRFTISRDNAKNTVYLQMNSLKPEDTAVYYCATDWTLEVYYGRYIAKYEYGSWGQGTQVTVSS,low polyreactivity
15,QVQLVESGGGLVQAGGSLRLSCAASGRTFYFYTMGWYRQAPGKERELVAAISWSGGSTYYADSVKGRFTISRDNAKNTVYLQMISLKPEDTAVYYCAASSPWEQSNDQFYYWGQGTQVTVSS,low polyreactivity
16,QVQLVESGGGLVQAGGSLRLSCAASGRTFYGNAMGWYRQAPGKERELVAAINRDGGTYYADSVKGRFTISRDNAKNTVYLQMNSLKPEDTAVYYCNAVKRGIRYGYWGQGTQVTVSS,high polyreactivity
17,QVQLVESGGGLVQAGGSLRLSCAASGRTFYGNAMGWYRQAPGKERELVAAISWSGGGTYYADSVKGRFTISRDNAKNTVYLQMNSLKPEDTAVYYCAAQFGRKGSGVWTRPENYWGQGTQVTVSS,high polyreactivity
18,QVQLVESGGGLVQAGGSLRLSCAASGRTFYGNAMGWYRQAPGKERELVAAISYRTGRTYYADSVKGRFTISRDNAKNTVYLQMNSLKPEDTAVYYCAADLHSRDDYWGQGTKVTVSS,high polyreactivity
19,QVQLVESGGGLVQAGGSLRLSCAASGRTFYGYAMGLYRQAPGKERELGASIRQSAGRTYYADSVKGRFTISRDNAMNTVYLQMNSLNPEDTAVYYCAASIFLRSFYQQGNYWGQGTQVTVSS,high polyreactivity
20,QVQLVESGGGLVQAGGSLRLSCAASGRTFYGYAMGWYRQAPGKEREFVAAINRSGGTTYYADSVKGRFTISRDNAKNTVYLQMNSLKPEDTAVYYCAADYSRIRRWPGYYAYDYWGQGTQVTVSS,high polyreactivity
